{"source": "patent US20240209044", "proteins": {"B1": {"name": "PKCtheta, HA-tagged, immunoprecipitated from HEK293T lysate (protein)", "chain": "MSPFLRIGLSNFDCGSCQSCQGEAVNPYCAVLVKEYVESENGQMYIQKKPTMYPPWDSTFDAHINKGRVMQIIVKGKNVDLISETTVELYSLAERCRKNNGKTEIWLELKPQGRMLMNARYFLEMSDTKDMNEFETEGFFALHQRRGAIKQAKVHHVKCHEFTATFFPQPTFCSVCHEFVWGLNKQGYQCRQCNAAIHKKCIDKVIAKCTGSAINSRETMFHKERFKIDMPHRFKVYNYKSPTFCEHCGTLLWGLARQGLKCDACGMNVHHRCQTKVANLCGINQKLMAEALAMIESTQQARCLRDTEQIFREGPVEIGLPCSIKNEARPPCLPTPGKREPQGISWESPLDEVDKMCHLPEPELNKERPSLQIKLKIEDFILHKMLGKGSFGKVFLAEFKKTNQFFAIKALKKDVVLMDDDVECTMVEKRVLSLAWEHPFLTHMFCTFQTKENLFFVMEYLNGGDLMYHIQSCHKFDLSRATFYAAEIILGLQFLHSKGIVYRDLKLDNILLDKDGHIKIADFGMCKENMLGDAKTNTFCGTPDYIAPEILLGQKYNHSVDWWSFGVLLYEMLIGQSPFHGQDEEELFHSIRMDNPFYPRWLEKEAKDLLVKLFVREPEKRLGVRGDIRQHPLFREINWEELERKEIDPPFRPKVKSPFDCSNFDKEFLNEKPRLSFADRALINSMDQNMFRNFSFMNPGMERLIS"}, "B2": {"name": "PKCzeta, HA-tagged, immunoprecipitated from HEK293T lysate (protein)", "chain": "MPSRTGPKMEGSGGRVRLKAHYGGDIFITSVDAATTFEELCEEVRDMCRLHQQHPLTLKWVDSEGDPCTVSSQMELEEAFRLARQCRDEGLIIHVFPSTPEQPGLPCPGEDKSIYRRGARRWRKLYRANGHLFQAKRFNRRAYCGQCSERIWGLARQGYRCINCKLLVHKRCHGLVPLTCRKHMDSVMPSQEPPVDDKNEDADLPSEETDGIAYISSSRKHDSIKDDSEDLKPVIDGMDGIKISQGLGLQDFDLIRVIGRGSYAKVLLVRLKKNDQIYAMKVVKKELVHDDEDIDWVQTEKHVFEQASSNPFLVGLHSCFQTTSRLFLVIEYVNGGDLMFHMQRQRKLPEEHARFYAAEICIALNFLHERGIIYRDLKLDNVLLDADGHIKLTDYGMCKEGLGPGDTTSTFCGTPNYIAPEILRGEEYGFSVDWWALGVLMFEMMAGRSPFDIITDNPDMNTEDYLFQVILEKPIRIPRFLSVKASHVLKGFLNKDPKERLGCRPQTGFSDIKSHAFFRSIDWDLLEKKQALPPFQPQITDDYGLDNFDTQFTSEPVQLTPDDEDAIKRIDQSEFEGFEYINPLLLSTEESV"}, "B3": {"name": "PKCepsilon, HA-tagged, immunoprecipitated from HEK293T lysate (protein)", "chain": "MVVFNGLLKIKICEAVSLKPTAWSLRHAVGPRPQTFLLDPYIALNVDDSRIGQTATKQKTNSPAWHDEFVTDVCNGRKIELAVFHDAPIGYDDFVANCTIQFEELLQNGSRHFEDWIDLEPEGRVYVIIDLSGSSGEAPKDNEERVFRERMRPRKRQGAVRRRVHQVNGHKFMATYLRQPTYCSHCRDFIWGVIGKQGYQCQVCTCVVHKRCHELIITKCAGLKKQETPDQVGSQRFSVNMPHKFGIHNYKVPTFCDHCGSLLWGLLRQGLQCKVCKMNVHRRCETNVAPNCGVDARGIAKVLADLGVTPDKITNSGQRRKKLIAGAESPQPASGSSPSEEDRSKSAPTSPCDQEIKELENNIRKALSFDNRGEEHRAASSPDGQLMSPGENGEVRQGQAKRLGLDEFNFIKVLGKGSFGKVMLAELKGKDEVYAVKVLKKDVILQDDDVDCTMTEKRILALARKHPYLTQLYCCFQTKDRLFFVMEYVNGGDLMFQIQRSRKFDEPRSRFYAAEVTSALMFLHQHGVIYRDLKLDNILLDAEGHCKLADFGMCKEGILNGVTTTTFCGTPDYIAPEILQELEYGPSVDWWALGVLMYEMMAGQPPFEADNEDDLFESILHDDVLYPVWLSKEAVSILKAFMTKNPHKRLGCVASQNGEDAIKQHPFFKEIDWVLLEQKKIKPPFKPRIKTKRDVNNFDQDFTREEPVLTLVDEAIVKQINQEEFKGFSYFGEDLMP"}}, "key": {"[1]": {"biological_target": "T1, ZAP, zeta activating peptide, the PKCzeta uORF-encoded peptide", "T1 chain": "MGPREARLQVHQLQTAGP"}, "[2]": {"biological_target": "T2, ZIP, zeta inhibitory peptide, the pseudo-substrate peptide of the PKCzeta regulatory domain", "T2 chain": "SIYRRGARRWRKL"}}}
{"protein": "B1", "values": [{"measurement": "phosphorylation of MBP by PKC isoforms (32P-γATP in vitro kinase assay)", "setting": "[1]", "result": "the peptide had no effect on the phosphorylation of MBP by the PKC isoforms PKCeta (PKCη), PKCtheta (PKCθ), PKCgamma (PKCγ), and PKCalpha (PKCα)"}]}
{"protein": "B2", "values": [{"measurement": "PKCzeta phosphorylation of MBP (32P-γATP in vitro kinase assay)", "setting": "[1]", "result": "did not inhibit PKCzeta phosphorylation of MBP, rather significantly increased the phosphorylation on MBP"}, {"measurement": "kinase activity (phosphorylation of MBP, 32P-γ-ATP in vitro kinase assay, dose series of peptide)", "setting": "[1]", "result": "the ZAP peptide activates the kinase activity of both PKCzeta and PKMzeta"}, {"measurement": "phosphorylation of MBP by PKC isoforms (32P-γATP in vitro kinase assay)", "setting": "[1]", "result": "enhanced the phosphorylation of PKC isoforms of the novel PKC sub-family of PKCzeta, PKCdelta and PKCepsilon"}, {"measurement": "kinase activity (phosphorylation of MBP, 32P-γ-ATP in vitro kinase assay, dose series of peptide)", "setting": "[2]", "result": "the known PS ZIP peptide inhibits their activity"}]}
{"protein": "B3", "values": [{"measurement": "phosphorylation of MBP by PKC isoforms (32P-γATP in vitro kinase assay)", "setting": "[1]", "result": "enhanced the phosphorylation of PKC isoforms of the novel PKC sub-family of PKCzeta, PKCdelta and PKCepsilon"}]}
